In data set [1] the test system is HeLa Kyoto. In words: solubility in G1/S (NP-40 vs SDS abundance) (log2 ratio); higher = more soluble. The following applies: cell cycle stage: G1/S.
In data set [2] the test system is HeLa Kyoto. Briefly: melting temperature (median over replicates), in situ; higher = more thermally stable.
Data set [3] deals with HeLa Kyoto. Briefly: solubility change mitosis vs G1/S (difference of NP-40 vs SDS log2 ratios) (log2 ratio difference); higher = more soluble in mitosis.
For data set [4], the system named is HeLa Kyoto. In words: thermal stability score vs G1/S (z-score of summed log2 fold changes over temperatures); higher = more thermally stable than in G1/S.
Setting [5] is: cell cycle stage: early G1 (4.5 h after nocodazole release).
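For melting temperature (median over replicates), in situ in this document: HeLa Kyoto cells synchronized by double thymidine or nocodazole block, proteins quantified by TMT10plex mass spectrometry, three independent biological replicates.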
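For solubility change mitosis vs G1/S (difference of NP-40 vs SDS log2 ratios) in this document: synchronized HeLa Kyoto cells (double thymidine block for G1/S, nocodazole release for mitosis), protein amounts in NP-40 versus SDS lysates quantified by mass spectrometry, three biological replicates.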
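For solubility in G1/S (NP-40 vs SDS abundance) in this document: HeLa Kyoto cells arrested at G1/S by double thymidine block, proteins quantified by TMT10plex mass spectrometry in mild NP-40 versus SDS extracts, three biological replicates.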
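For thermal stability score vs G1/S (z-score of summed log2 fold changes over temperatures) in this document: synchronized HeLa Kyoto cells, proteins quantified by TMT10plex mass spectrometry, three biological replicates, mitosis taken 0.5 h after nocodazole release, G1/S directly after double thymidine block.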

Consider “MVSIPEYYEGKNVLLTGATGFLGKVLLEKLLRSCPKVNSVYVLVRQKAGQTPQERVEEVLSGKLFDRLRDENPDFREKIIAINSELTQPKLALSEEDKEVIIDSTNIIFHCAATVRFNENLRDAVQLNVIATRQLILLAQQMKNLEVFMHVSTAYAYCNRKHIDEVVYPPPVDPKKLIDSLEWMDDGLVNDITPKLIGDRPNTYIYTKALAEYVVQQEGAKLNVAIVRPSIVGASWKEPFPGWIDNFNGPSGLFIAAGKGILRTIRASNNALADLVPVDVVVNMSLAAAWYSGVNRPRNIMVYNCTTGSTNPFHWGEVEYHVISTFKRNPLEQAFRRPNVNLTSNHLLYHYWIAVSHKAPAFLYDIYLRMTGRSPRMMKTITRLHKAMVFLEYFTSNSWVWNTENVNMLMNQLNPEDKKTFNIDVRQLHWAEYIENYCLGTKKYVLNEEMSGLPAARKHLNKLRNIRYGFNTILVILIWRIFIARSQMARNIWYFVVSLCYKFLSYFRASSTMRY [FAR1]”, for which, in the data set with HeLa Kyoto [1], the “solubility in G1/S (log2)” value was -0.254. Also, the melting temperature with HeLa Kyoto [2] (cell cycle stage: G1/S) is 51.7 °C; in the data set on HeLa Kyoto [2] (cell cycle stage: mitosis) it was 51.2 °C. The “solubility change mitosis (log2)” value in the data set on HeLa Kyoto [3] was -0.0436. Also, the thermal stability score with HeLa Kyoto [4] (setting [5]) was found to be 0.0485; in the data set on HeLa Kyoto [4] (cell cycle stage: mitosis) it was 0.111.

For “MVSKALLRLVSAVNRRRMKLLLGIALLAYVASVWGNFVNMRSIQENGELKIESKIEEMVEPLREKIRDLEKSFTQKYPPVKFLSEKDRKRILITGGAGFVGSHLTDKLMMDGHEVTVVDNFFTGRKRNVEHWIGHENFELINHDVVEPLYIEVDQIYHLASPASPPNYMYNPIKTLKTNTIGTLNMLGLAKRVGARLLLASTSEVYGDPEVHPQSEDYWGHVNPIGPRACYDEGKRVAETMCYAYMKQEGVEVRVARIFNTFGPRMHMNDGRVVSNFILQALQGEPLTVYGSGSQTRAFQYVSDLVNGLVALMNSNVSSPVNLGNPEEHTILEFAQLIKNLVGSGSEIQFLSEAQDDPQKRKPDIKKAKLMLGWEPVVPLEEGLNKAIHYFRKELEYQANNQYIPKPKPARIKKGRTRHS [UXS1]”, the “solubility in G1/S (log2)” value in the data set on HeLa Kyoto [1] was found to be 0.264. The melting temperature in the data set with HeLa Kyoto [2] (cell cycle stage: G1/S) was found to be 54.6 °C; in the data set with HeLa Kyoto [2] (cell cycle stage: mitosis), 54.7 °C. For the same sequence, the “solubility change mitosis (log2)” value in the data set with HeLa Kyoto [3] was -0.193. The thermal stability score is 0.535 with HeLa Kyoto [4] (setting [5]) and -0.237 in the data set on HeLa Kyoto [4] (cell cycle stage: mitosis).

For the sequence “MVSRPEPEGEAMDAELAVAPPGCSHLGSFKVDNWKQNLRAIYQCFVWSGTAEARKRKAKSCICHVCGVHLNRLHSCLYCVFFGCFTKKHIHEHAKAKRHNLAIDLMYGGIYCFLCQDYIYDKDMEIIAKEEQRKAWKMQGVGEKFSTWEPTKRELELLKHNPKRRKITSNCTIGLRGLINLGNTCFMNCIVQALTHTPLLRDFFLSDRHRCEMQSPSSCLVCEMSSLFQEFYSGHRSPHIPYKLLHLVWTHARHLAGYEQQDAHEFLIAALDVLHRHCKGDDNGKKANNPNHCNCIIDQIFTGGLQSDVTCQVCHGVSTTIDPFWDISLDLPGSSTPFWPLSPGSEGNVVNGESHVSGTTTLTDCLRRFTRPEHLGSSAKIKCSGCHSYQESTKQLTMKKLPIVACFHLKRFEHSAKLRRKITTYVSFPLELDMTPFMASSKESRMNGQYQQPTDSLNNDNKYSLFAVVNHQGTLESGHYTSFIRQHKDQWFKCDDAIITKASIKDVLDSEGYLLFYHKQFLEYE [USP22]”, the “solubility in G1/S (log2)” value in the data set on HeLa Kyoto [1] is -0.542. Further, the values for the melting temperature in the data set on HeLa Kyoto [2] (cell cycle stage: G1/S) and in the data set on HeLa Kyoto [2] (cell cycle stage: mitosis) were 48.1 °C and 49.6 °C, respectively. Besides, in the data set on HeLa Kyoto [3], the “solubility change mitosis (log2)” value is -0.0588. Besides, the thermal stability score with HeLa Kyoto [4] (setting [5]) turned out to be 0.773; in the data set on HeLa Kyoto [4] (cell cycle stage: mitosis) it was 1.56.

Consider “MVTVGNYCEAEGPVGPAWMQDGLSPCFFFTLVPSTRMALGTLALVLALPCRRRERPAGADSLSWGAGPRISPYVLQLLLATLQAALPLAGLAGRVGTARGAPLPSYLLLASVLESLAGACGLWLLVVERSQARQRLAMGIWIKFRHSPGLLLLWTVAFAAENLALVSWNSPQWWWARADLGQQVQFSLWVLRYVVSGGLFVLGLWAPGLRPQSYTLQVHEEDQDVERSQVRSAAQQSTWRDFGRKLRLLSGYLWPRGSPALQLVVLICLGLMGLERALNVLVPIFYRNIVNLLTEKAPWNSLAWTVTSYVFLKFLQGGGTGSTGFVSNLRTFLWIRVQQFTSRRVELLIFSHLHELSLRWHLGRRTGEVLRIADRGTSSVTGLLSYLVFNVIPTLADIIIGIIYFSMFFNAWFGLIVFLCMSLYLTLTIVVTEWRTKFRRAMNTQENATRARAVDSLLNFETVKYYNAESYEVERYREAIIKYQGLEWKSSASLVLLNQTQNLVIGLGLLAGSLLCAYFVTEQKLQVGDYVLFGTYIIQLYMPLNWFGTYYRMIQTNFIDMENMFDLLKEETEVKDLPGAGPLRFQKGRIEFENVHFSYADGRETLQDVSFTVMPGQTLALVGPSGAGKSTILRLLFRFYDISSGCIRIDGQDISQVTQASLRSHIGVVPQDTVLFNDTIADNIRYGRVTAGNDEVEAAAQAAGIHDAIMAFPEGYRTQVGERGLKLSGGEKQRVAIARTILKAPGIILLDEATSALDTSNERAIQASLAKVCANRTTIVVAHRLSTVVNADQILVIKDGCIVERGRHEALLSRGGVYADMWQLQQGQEETSEDTKPQTMER [ABCB6]”, for which the “solubility in G1/S (log2)” value in the data set with HeLa Kyoto [1] was -0.0102. In addition, the melting temperature in the data set with HeLa Kyoto [2] (cell cycle stage: G1/S) came out at 54 °C; in the data set with HeLa Kyoto [2] (cell cycle stage: mitosis) it was 53.4 °C. Further, the “solubility change mitosis (log2)” value with HeLa Kyoto [3] is -0.128. Besides, the values for the thermal stability score in the data set with HeLa Kyoto [4] (setting [5]) and with HeLa Kyoto [4] (cell cycle stage: mitosis) were -1.04 and -3.83, respectively.

As to “MVVMARLSRPERPDLVFEEEDLPYEEEIMRNQFSVKCWLRYIEFKQGAPKPRLNQLYERALKLLPCSYKLWYRYLKARRAQVKHRCVTDPAYEDVNNCHERAFVFMHKMPRLWLDYCQFLMDQGRVTHTRRTFDRALRALPITQHSRIWPLYLRFLRSHPLPETAVRGYRRFLKLSPESAEEYIEYLKSSDRLDEAAQRLATVVNDERFVSKAGKSNYQLWHELCDLISQNPDKVQSLNVDAIIRGGLTRFTDQLGKLWCSLADYYIRSGHFEKARDVYEEAIRTVMTVRDFTQVFDSYAQFEESMIAAKMETASELGREEEDDVDLELRLARFEQLISRRPLLLNSVLLRQNPHHVHEWHKRVALHQGRPREIINTYTEAVQTVDPFKATGKPHTLWVAFAKFYEDNGQLDDARVILEKATKVNFKQVDDLASVWCQCGELELRHENYDEALRLLRKATALPARRAEYFDGSEPVQNRVYKSLKVWSMLADLEESLGTFQSTKAVYDRILDLRIATPQIVINYAMFLEEHKYFEESFKAYERGISLFKWPNVSDIWSTYLTKFIARYGGRKLERARDLFEQALDGCPPKYAKTLYLLYAQLEEEWGLARHAMAVYERATRAVEPAQQYDMFNIYIKRAAEIYGVTHTRGIYQKAIEVLSDEHAREMCLRFADMECKLGEIDRARAIYSFCSQICDPRTTGAFWQTWKDFEVRHGNEDTIKEMLRIRRSVQATYNTQVNFMASQMLKVSGSATGTVSDLAPGQSGMDDMKLLEQRAEQLAAEAERDQPLRAQSKILFVRSDASREELAELAQQVNPEEIQLGEDEDEDEMDLEPNEVRLEQQSVPAAVFGSLKED [XAB2]”, the “solubility in G1/S (log2)” value in the data set with HeLa Kyoto [1] is -0.31. The results for the melting temperature in the data set on HeLa Kyoto [2] (cell cycle stage: G1/S) and with HeLa Kyoto [2] (cell cycle stage: mitosis) were 47.4 °C and 48.4 °C, respectively. Besides, in the data set on HeLa Kyoto [3], the “solubility change mitosis (log2)” value was 0.0385. Also, the thermal stability score in the data set on HeLa Kyoto [4] (setting [5]) is 2.02; in the data set with HeLa Kyoto [4] (cell cycle stage: mitosis), 4.49.
